Data on four substances can be found in patent US20180296689A1.

Experiment [1] concerns the target Human neonatal receptor (FcRn) (human) (UniProt P55899). The experiment is described as follows: SPR (BIACore), low density FcRn biosensor chip, three runs of five dilutions. For orientation: SPR reads the build-up and loss of mass on a sensor chip optically.
The target in experiment [2] is TROP-2 (EGP-1), human, on tumor cell lines (human) (UniProt P09758). Briefly: cell binding on TROP-2-positive PC-3 human prostate carcinoma cells, three separate occasions.
Experiment [3] addresses CD74 (invariant chain, Ii), human, on tumor cell lines (human) (UniProt P04233). Briefly: flow cytometry, surface only, Hs746T cells. Background: In flow cytometry, cells or beads pass a laser one at a time.
Experiment [4] shares this target. The experiment is described as follows: flow cytometry, surface and cytoplasmic (permeabilized), A-375 cells.
For experiment [5] the target is unchanged. The experiment is described as follows: flow cytometry, surface only, Raji cells.
For experiment [6] the target is unchanged. Briefly: flow cytometry, surface and cytoplasmic (permeabilized), Hep-G2 cells.
Experiment [7] has the same target. Briefly: flow cytometry, surface only, A-375 cells.
Experiment [8] has the same target. Briefly: flow cytometry, surface only, HuH-7 cells.
Experiment [9] has the same target. Briefly: cell binding to antigen-positive cells (cell line not given).
Experiment [10] has the same target. Briefly: flow cytometry, surface and cytoplasmic (permeabilized), Capan-1 cells.
The target is the same in experiment [11]. The experiment is described as follows: flow cytometry, surface and cytoplasmic (permeabilized), HuH-7 cells.
Experiment [12] shares this target. Briefly: flow cytometry, surface only, NCI-N87 cells.
The target is the same in experiment [13]. The experiment is described as follows: flow cytometry, surface and cytoplasmic (permeabilized), Raji cells.
Experiment [14] shares this target. The experiment is described as follows: flow cytometry, surface and cytoplasmic (permeabilized), NCI-N87 cells.
For experiment [15] the target is unchanged. Briefly: flow cytometry, surface and cytoplasmic (permeabilized), Hs746T cells.
For experiment [16] the target is unchanged. Briefly: flow cytometry, surface only, Hep-G2 cells.
Experiment [17] has the same target. Briefly: flow cytometry, surface only, Capan-1 cells.

CD74 (invariant chain, Ii), human, on tumor cell lines (human), sequence (P04233 whole entry, change not shown): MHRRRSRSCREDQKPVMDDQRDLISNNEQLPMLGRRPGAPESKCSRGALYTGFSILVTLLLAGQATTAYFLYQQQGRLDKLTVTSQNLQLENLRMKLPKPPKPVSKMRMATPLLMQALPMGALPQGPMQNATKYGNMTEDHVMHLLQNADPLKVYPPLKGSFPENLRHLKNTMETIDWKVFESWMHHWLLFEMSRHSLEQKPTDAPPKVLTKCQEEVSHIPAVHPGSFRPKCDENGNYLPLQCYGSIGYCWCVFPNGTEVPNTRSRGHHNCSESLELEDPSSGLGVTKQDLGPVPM
Human neonatal receptor (FcRn) (human), sequence (P55899 24-297 limits assumed): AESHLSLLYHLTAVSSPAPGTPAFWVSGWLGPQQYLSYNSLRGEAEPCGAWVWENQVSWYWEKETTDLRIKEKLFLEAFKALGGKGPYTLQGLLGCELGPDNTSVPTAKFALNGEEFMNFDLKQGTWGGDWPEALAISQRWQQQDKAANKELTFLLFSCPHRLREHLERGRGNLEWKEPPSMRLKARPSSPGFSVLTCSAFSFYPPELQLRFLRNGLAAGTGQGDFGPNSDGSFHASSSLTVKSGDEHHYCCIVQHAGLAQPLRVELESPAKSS
TROP-2 (EGP-1), human, on tumor cell lines (human), sequence (P09758 27-323): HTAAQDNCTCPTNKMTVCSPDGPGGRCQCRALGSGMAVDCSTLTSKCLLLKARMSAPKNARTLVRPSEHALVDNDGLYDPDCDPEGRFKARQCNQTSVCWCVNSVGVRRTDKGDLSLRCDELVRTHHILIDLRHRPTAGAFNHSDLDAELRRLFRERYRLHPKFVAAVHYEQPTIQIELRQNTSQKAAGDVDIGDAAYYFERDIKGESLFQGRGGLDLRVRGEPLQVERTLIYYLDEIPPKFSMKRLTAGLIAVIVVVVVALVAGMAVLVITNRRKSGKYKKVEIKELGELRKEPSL

For orientation: Kd means the free concentration of one partner at which half of the binding sites on the other are occupied at equilibrium, for simple one-to-one binding. Higher therefore signals lower affinity. For “IMMU-132 (hRS7-CL2A-SN-38 antibody-drug conjugate)”, the Kd amounted to 92400 pM in [1] and 658 pM in [2].

In the case of “Milatuzumab (hLL1, humanized anti-CD74 IgG1 monoclonal antibody, unconjugated)”, the MFI in experiment [3] turned out to be 17 MFI; in experiment [4], 185 MFI; in experiment [5], 59 MFI; in experiment [6], 156 MFI; in [7], 16 MFI; in experiment [8], 8 MFI. In addition, the MFI in experiment [10] turned out to be 248 MFI; in [11] it was 114 MFI; in experiment [12], 5 MFI; in experiment [13], 143 MFI; in [14], 220 MFI; in experiment [15], 144 MFI. Moreover, the MFI in experiment [16] worked out at 9 MFI; in experiment [17] it was 22 MFI. Moreover, the MFI Ratio hLL1:bkgd in [3] came to 2.1; in [4], 30.8; in experiment [5], 19.6; in experiment [6], 31.2; in [7], 5.3; in experiment [8] it was 1.6. Further, the MFI Ratio hLL1:bkgd in [10] amounted to 49.6; in [11] it was 28.5; in [12], 1.3; in experiment [13], 28.6; in experiment [14] it was 36.7; in experiment [15], 28.8. The MFI Ratio hLL1:bkgd came to 1.5 in experiment [16] and 1.8 in [17]. For the same substance, in experiment [9], the Kd worked out at 770 pM.

On to “milatuzumab-CL2A-SN-38 conjugate (antibody)”, for which the equilibrium dissociation constant (Kd) in [9] came out at 590 pM.

In experiment [9], “milatuzumab-CL2E-SN-38 conjugate (antibody)” displayed an equilibrium dissociation constant (Kd) of 800 pM.
